Earlier results as cited in article PMC11271873.

How the values were obtained:
Details in all cases: free peptide
[1] = test system: Cterm (position 2, ----KK-----)
[2] = test system: Nterm (position 1, -----KK----)
[3] = test system: Cterm (position 3, ---KKK-----)
[4] = test system: Nterm (position 1, -----KKK---)

Substance | pKa [1] | pKa [2] | pKa [3] | pKa [4]
Lys-Lys (di-lysine) (synthetic) | 3,01 | 7,53 | – | –
Lys-Lys-Lys (tri-lysine) (synthetic) | – | – | 3,08 | 7,34
